Measured values published in US11839219B2, “BVP10 protein for controlling tetranychid mites and use thereof” (priority 2021, dated 2023).

Key:
Tetranychus urticae = assay: Slide dipping method, miticidal activity against Tetranychus urticae; conditions: for Mortality (%): 24 hrs after dipping; for Probability Unit (P + 5): probit of mortality
Source text: (§1) Referring to the standard method for determining pest mites, namely, the slide dipping method, recommended by Food and Agriculture Organization of the United Nations (FAO), a double-faced adhesive tape is cut into pieces 2-3 cm long and stuck to one end of a microscope slide, and paper on the adhesive tape is removed with tweezers. Female adult mites with similar sizes, bright body color, and high vitality are picked with a 0# Chinese writing brush, and are stuck to the double-faced adhesive tape (note: the feet, whiskers, and mouthparts of the mites should not be stuck) on their backs, with 4 lines stuck to each piece and 10 mites in each line. The mites are placed and left in a biochemical incubator for 4 hrs at temperature of 25° C. and a relative humidity of approximately 85%, and then are observed with binoculars. […] The agent is diluted 5-7 times with water based on a preliminary test. One end of the slide with the mites is dipped into the agent solution, shaken lightly for 5 s, and then taken out. The mites, as well as the excessive agent solution therearound, are rapidly dried with absorbent paper. The slide is placed and left in the above biochemical incubator. After 24 hrs, the results are checked with the binoculars. The bodies of the mites are lightly touched with the Chinese writing brush, and those without any motion of their feet are considered to be dead. The test is repeated three times at each concentration, and the mites dipped in fresh water are taken as a control. […] An LC50 value is calculated by using SPASS 19.0 data processing software.

Panonychus citri = assay: Slide dipping method, miticidal activity against Panonychus citri; conditions: for Mortality (%): 24 hrs after dipping; for Probability Unit (P + 5): probit of mortality
Source text: as §1, with “recommended by the Food and” for “recommended by Food and”, “bright body color and high” for “bright body color, and high”, “biochemical incubator with the temperature of” for “biochemical incubator for 4 hrs at temperature of”, “of approximately 85% for 4 hrs, and then” for “of approximately 85%, and then”, “for 5 s and then” for “for 5 s, and then”, “by using the SPASS 19.0” for “by using SPASS 19.0”

[1] = tested on: strawberry red spider mites; assay: Field control of strawberry red spider mites; assay type: in vivo; conditions: for Control effect (%): corrected against fresh water control
Protocol: Test agents: 20% avermectin spirodiclofen suspension (Hebei Xingbai Agricultural Technology Co., Ltd., diluted 3000 times during use; and the biological mite pesticide BVP10 with the effective protein concentration of 389.5 μg/mL.
The test included three treatments, each repeated three times; blocks are randomly permuted; and the agents are applied to […] in each block with protective rows provided around the plants. […] Ten strawberry plants are taken from each block, with one leaf labeled for each plant. The number of red spider mites on both sides of each of the ten leaves are inspected. The red spider mites are directly observed with a hand-held magnifying lens, and the number of all living mites is taken down. The initial population number of the red spider mites is investigated before the application, and a total of three investigations are conducted on Day 1, Day 4, and Day 7 respectively after the application.
Calculation method of pesticidal effect: the control effect is calculated based on the initial population number of the red spider mites before the application and the number of living red spider mites on each day after the application, and the calculation formula is shown below: The data is analyzed for significance using Duncan's new multiple range method of DPS software.

Tetranychus cinnabarinus = assay: Slide dipping method, miticidal activity against Tetranychus cinnabarinus; conditions: for Mortality (%): 24 hrs after dipping; for Probability Unit (P + 5): probit of mortality
Source text: as §1, with “recommended by the Food and” for “recommended by Food and”, “bright body color and high” for “bright body color, and high”, “biochemical incubator with the temperature of” for “biochemical incubator for 4 hrs at temperature of”, “of approximately 85% for 4 hrs, and then” for “of approximately 85%, and then”, “for 5 s and then” for “for 5 s, and then”, “by using the SPASS 19.0” for “by using SPASS 19.0”
An LC50 value is calculated by using the SPASS 19.0 data processing software.

[2] = Dose 19.475 μg/mL, female adult mites
[3] = Dose 38.95 μg/mL, female adult mites
[4] = Dose 77.9 μg/mL, female adult mites
[5] = Dose 389.5 μg/mL, female adult mites
[6] = Day 4 after application, field spray on strawberry leaves
[7] = Day 7 after application, field spray on strawberry leaves

B1: BVP10 protein: protein shown in SEQ ID NO:2 for controlling tetranychid mites, prokaryotically expressed in Escherichia coli BL21, about 10 kDa (protein)
chain: MLKSKIKKIAGAAVIAGALLVSVSPAKAETLPGLIWVMDKYTDAFKFDMFIKNGNEKWVYVYTRLSDGKVDVEEVKCETIYKDRCYVKQ
modifications: Sequence for protein prepared by prokaryotic expression, eukaryotic expression, or direct synthesis, based the gene sequence of SEQ ID NO 1
With B1 the “Mortality (%)” value (Tetranychus urticae; [2]) was 47.2%, the “Probability Unit (P + 5)” value (Tetranychus urticae; Dose 19.475 μg/mL) was 4.927 and the “Mortality (%)” value (Tetranychus urticae; [3]) was 60.6%. The “Probability Unit (P + 5)” value (Tetranychus urticae; Dose 38.95 μg/mL) was 5.268, the “Mortality (%)” value (Tetranychus urticae; [4]) was 55.9% and the “Probability Unit (P + 5)” value (Tetranychus urticae; Dose 77.9 μg/mL) was 5.148. The “Mortality (%)” value (Tetranychus urticae; [5]) was 68.4%, the “Probability Unit (P + 5)” value (Tetranychus urticae; Dose 389.5 μg/mL) was 5.483 and the “Medial Lethal Concentration (LC50, μg/mL)” value (shortened to “Medial Lethal Concentration”) (Tetranychus urticae; female adult mites, 24 hrs, regression Y = 4.5286 + 0.3682X (r = 0.8832)) was 19.07 µg/mL. For the same molecule, the “Mortality (%)” value (Panonychus citri; [2]) was 23.5%, the “Probability Unit (P + 5)” value (Panonychus citri; Dose 19.475 μg/mL) was 4.276 and the “Mortality (%)” value (Panonychus citri; [3]) was 47.1%. For the same molecule, the “Probability Unit (P + 5)” value (Panonychus citri; Dose 38.95 μg/mL) was 4.922, the “Mortality (%)” value (Panonychus citri; [4]) was 63.6% and the “Probability Unit (P + 5)” value (Panonychus citri; Dose 77.9 μg/mL) was 5.349. The “Mortality (%)” value (Panonychus citri; [5]) was 78.6%, the “Probability Unit (P + 5)” value (Panonychus citri; Dose 389.5 μg/mL) was 5.793 and the “Medial Lethal Concentration” value (Panonychus citri; female adult mites, 24 hrs, regression Y = 3.0472 + 1.1072X (r = 0.9548)) was 58.05 µg/mL. The “Control effect (%)” value ([1]; Day 1 after application) was 79.53%, the “Decline rate (%) of living mites” value ([1]; Day 1 after application, field spray on strawberry leaves) was 41.14% and the “Residual no of mites” value ([1]; Day 1 after application, field spray on strawberry leaves, BVP10 389.5 μg/mL, reference diluted 3000 times) was 206. For the same molecule, the “Control effect (%)” value ([1]; Day 4 after application) was 83.71%, the “Decline rate (%) of living mites” value [1, 6] was 33.14% and the “Residual number of mites” value [1, 6] was 234. For the same molecule, the “Control effect (%)” value ([1]; Day 7 after application) was 95.45%, the “Decline rate (%) of living mites” value [1, 7] was 77.14% and the “Residual number of mites” value [1, 7] was 80. The “Medial Lethal Concentration” value (Tetranychus cinnabarinus; 24 hrs, regression Y = 2.3766 + 1.6846X (r = 0.9797)) was 36.08 µg/mL, the “Mortality (%)” value (Tetranychus cinnabarinus; Dose 19.475 μg/mL) was 27.8% and the “Probability Unit (P + 5)” value (Tetranychus cinnabarinus; Dose 19.475 μg/mL) was 4.413. For the same molecule, the “Mortality (%)” value (Tetranychus cinnabarinus; Dose 38.95 μg/mL) was 51.4%, the “Probability Unit (P + 5)” value (Tetranychus cinnabarinus; Dose 38.95 μg/mL) was 5.039 and the “Mortality (%)” value (Tetranychus cinnabarinus; Dose 77.9 μg/mL) was 80.0%. For the same molecule, the “Probability Unit (P + 5)” value (Tetranychus cinnabarinus; Dose 77.9 μg/mL) was 5.840, the “Mortality (%)” value (Tetranychus cinnabarinus; Dose 389.5 μg/mL) was 94.7% and the “Probability Unit (P + 5)” value (Tetranychus cinnabarinus; Dose 389.5 μg/mL) was 6.616.
